B1: GREM1: gremlin1 protein, secreted BMP antagonist of the DAN family, added exogenously or immobilized (protein)
chain: KKKGSQGAIPPPDKAQHNDSEQTQSPQQPGSRNRGRGQGRGTAMPGEEVLESSQEALHVTERKYLKRDWCKTQPLKQTIHEEGCNSRTIINRFCYGQCNSFYIPRHIRKEEGSFQSCSFCKPKKFTTMMVTLNCPELQPPTKKKRVTRVKQCRCISIDLD
B2: BMP4: BMP ligand added to cells (protein, UniProt P12644 293-408, looked up)
Bone morphogenetic protein 4: SPKHHSQRARKKNKNCRRHSLYVDFSDVGWNDWIVAPPGYQAFYCHGDCPFPLADHLNSTNHAIVQTLVNSVNSSIPKACCVPTELSAISMLYLDEYDKVVLKNYQEMVVEGCGCR

Assays:
FGFR1 = FGFR1 (Homo sapiens, UniProt P11362); assay: ELISA binding of DAN family proteins to FGFR1
Sequence of FGFR1 (P11362 3-822 limits assumed): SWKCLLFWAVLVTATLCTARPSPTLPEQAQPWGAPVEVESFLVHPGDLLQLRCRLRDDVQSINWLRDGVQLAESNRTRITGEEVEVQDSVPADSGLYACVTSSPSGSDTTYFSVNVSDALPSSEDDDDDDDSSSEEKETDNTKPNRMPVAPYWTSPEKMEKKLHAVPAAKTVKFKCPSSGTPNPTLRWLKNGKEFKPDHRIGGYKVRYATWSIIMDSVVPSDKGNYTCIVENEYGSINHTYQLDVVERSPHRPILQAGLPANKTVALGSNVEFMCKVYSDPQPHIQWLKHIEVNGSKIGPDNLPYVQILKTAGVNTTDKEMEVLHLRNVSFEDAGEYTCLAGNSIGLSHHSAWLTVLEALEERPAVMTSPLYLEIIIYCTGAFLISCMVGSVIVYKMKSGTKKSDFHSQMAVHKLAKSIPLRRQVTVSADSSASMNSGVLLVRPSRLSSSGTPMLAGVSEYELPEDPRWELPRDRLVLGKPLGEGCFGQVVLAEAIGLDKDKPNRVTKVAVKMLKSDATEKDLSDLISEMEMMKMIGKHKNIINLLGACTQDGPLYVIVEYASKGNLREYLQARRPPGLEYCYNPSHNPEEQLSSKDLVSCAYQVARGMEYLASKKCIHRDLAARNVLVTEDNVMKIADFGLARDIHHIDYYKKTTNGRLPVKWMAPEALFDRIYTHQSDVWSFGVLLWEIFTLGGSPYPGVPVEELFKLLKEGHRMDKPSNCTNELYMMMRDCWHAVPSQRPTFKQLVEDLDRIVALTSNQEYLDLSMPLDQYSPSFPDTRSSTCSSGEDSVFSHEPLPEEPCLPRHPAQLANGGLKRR

PC3 cells = assay: Sphere formation, proliferation and apoptosis of PC3 cells; assay type: cell-based, human; settings: 100 ng/ml GREM1 protein in culture medium
From the text: Metastatic prostate cancer is a devastating disease and most cancers progress upon serial treatments with either androgen receptor antagonist or chemotherapy. One of the key cell types resistant to these treatments are cells with stem cells like property which has the capability of forming tumor spheres in suspension culture. To explore the role of GREM1 in the progression of CRPC, we utilized AR independent CRPC cell line PC3, as well as the AR dependent PCa cell line LNCaP and LAPC4. We generated cell sublines with loss or gain of GREM1 expression (FIGS. 3A, 4A and 5A).
14E3 was tested to target GREM1 in human PCa. The affinity and specificity of this antibody to hGREM1 was verified by ELISA (FIG. 12A). […] This antibody potentiated the anti-tumor effect of Enzalutamide in AR dependent LNCaP cells (FIG. 12B, 12C, 10K, 10L).

[1] = system: FGFR1/MEK/ERK signaling pathway; assay: FGFR1/MEK/ERK phosphorylation in PCa cell lines (immunoblotting); assay type: cell-based, human
Protocol: In order to test whether Gremlin1 promoted the FGFR-MAPK signaling, we first performed analysis of the expression levels of the four FGFRs in CRPC patients. […] We treated LNCaP and PC3 with GREM1 in different concentrations (1 ng/ml, 10 ng/ml, 100 ng/ml) and examined phosphorylation levels of FGFR1, MEK and ERK.
(§1) MAPK signaling can be activated through many membrane receptors besides FGFR. To test whether the activation of MAPK pathway by GREM1 was via FGFR, we constructed a FGFR1 knockout LNCaP subline by the CRISPR/Cas9 method. […] To further test whether the tumor promoting effect of GREM1 was through FGFR, we utilized small molecule inhibitors of FGFR or EGFR.
14E3 was tested to target GREM1 in human PCa.

PC-3 cells = assay: Scratch migration assay of PC-3 cells; assay type: cell-based, human; settings: 1 μg/ml Gremlin, 3 days
Protocol: PC-3 cells at log-growth phase were harvested and re-suspended in cell culture medium (DMEM medium supplied with 10% FBS). Cells were non-treated or treated with 1 μg/ml Gremlin or 10 μg/ml 14E3 or 10 μg/ml control mIgG2a for 3 days. Then cells were planted at 10^5 cells/well in 6-well cell culture plate. After cells reached 100% coverage of the bottom of wells, the medium was changed to serum free medium. Each well was made with one scratch using 200 μl-tip. The migration rate of cells were analyzed by calculating the area of cells growing on the scratch using Image J software.

LNCaP-PSA cells = assay: LNCaP-PSA reporter cell assay (PSA-low population, flow cytometry); assay type: cell-based, human; settings: dose dependent; day 7
From the text: In order to assess the role of gremlin1 in modulating tumor prostate cell growth, we tested the antibodies provided herein in an assay involving prostate cancer cell LNCaP. This cell line was transfected with a PSA promoter driven GFP expression lentivirus plasmid. PSA is known as a differentiated marker of prostate cell and prostate cancer cells with low level of PSA represent poorly differentiated or undifferentiated prostate cancer cells. These cells usually have stem cell like property and have more aggressive growth property. The LNCaP reporter cell assay is briefly described below.
LNCaP-PSA cells were plated in 24-well plates at 10000/well in RPMI 1640/10% FBS (GIBCO), 1% P/S (complete media) and incubated at 37° ° C. and 5% CO2 overnight. The next day, remove media, 1 ug/ml human gremlin (ACRO) or human gremlin with serially diluted antibodies were added to the cells. Change medium every three days. On day 7, remove media from the wells, wash with PBS twice, run flow cytometer (Bechman) using FITC channel.

LNCaP cells = assay: GREM1-promoted PCa cell proliferation and sphere formation with FGFR1/MEK inhibitors or BMP4; assay type: cell-based, human
From the text: as §1

| Molecule | binding to FGFR1 (FGFR1) | cell proliferation (PC3 cells) | sphere formation (PC3 cells) | time MAPK activation was maintained at a high level ([1]; Gremlin1 100 ng/ml, PC3 and LNCaP cells) | p-FGFR1, p-MEK1/2 and p-ERK1/2 levels ([1]; LNCaP and PC3, 1 ng/ml, 10 ng/ml, 100 ng/ml, dose dependent) | cell migration of prostate cancer cells (PC-3 cells) | percentage of the PSA-low LNCaP population (LNCaP-PSA cells) | phosphorylation levels of FGFR1, MEK1/2 and ERK1/2 following GREM1 stimulation on addition of BMP4 ([1]; BMP4 20 ng/ml, PC3 and LNCaP-resistance cells) | proliferation promoting role of GREM1 (LNCaP cells) | sphere-formation promoting role of GREM1 (LNCaP cells) |
| --- | --- | --- | --- | --- | --- | --- | --- | --- | --- | --- |
| B1 | binds | significant elevation | significant elevation | up to 1 hour | increase | accelerated | increased | – | – | – |
| B2 | – | – | – | – | – | – | – | did not alter | not affected | not affected |

From patent US20240190950A1, “METHOD OF TREATING DISEASES USING GREMLIN1 ANTAGONISTS” (SHANGHAI JIAO TONG UNIVERSITY, priority 2021, published 2024)
